According to doi:10.1101/2020.06.08.118984 (bioRxiv, 2020):

Biological target: the molecule itself
Assay: crystal structure

B1: mouse TBPL2 core domain (TBPL2^C) (domain or fragment)
chain: SGIVPQLQNVVSTANLACKLDLRKIALNAKNTEYNPKRFAAVIMRIREPRTTALIFSSGKVVCTGAKSEEESRLAARKYARVVQKLGFPVRFFNFKIQNMVGSCDVKFPIRLEILALTHRQFSSSYEPELFPGLIYKMVKPQVVLLIFASGKVVLTGAKERSEIYEAFENMYPILESFKK
**Q.** Which “stoichiometry N” value does the source give for B1 here?
**A.** Its value is 2.
